Test [1] addresses human serum amyloid P component (SAP) (human) (UniProt P02743). The test is described as follows: IRMA; SAP alone covalently immobilised; in EDTA; radiolabelled sheep anti-mouse IgG; mean n=3.
For test [2] the target is unchanged. As to the kind of experiment: IRMA; SAP non-covalently immobilised; antibody at 0.01 µg/ml; radiolabelled sheep polyvalent anti-mouse IgG.
Test [3] addresses human SAP complexed with CPHPC and covalently cross linked with BS3 (human) (UniProt P02743). The test is described as follows: IRMA; SAP-CPHPC complex covalently immobilised; in calcium; radiolabelled sheep anti-mouse IgG; mean n=3.
The target of test [4] is human serum amyloid P component (SAP) (human) (UniProt P02743). The test is described as follows: IRMA; SAP non-covalently immobilised; antibody at 100 µg/ml; radiolabelled sheep polyvalent anti-mouse IgG.
human serum amyloid P component (SAP) (human), sequence (P02743 20-223): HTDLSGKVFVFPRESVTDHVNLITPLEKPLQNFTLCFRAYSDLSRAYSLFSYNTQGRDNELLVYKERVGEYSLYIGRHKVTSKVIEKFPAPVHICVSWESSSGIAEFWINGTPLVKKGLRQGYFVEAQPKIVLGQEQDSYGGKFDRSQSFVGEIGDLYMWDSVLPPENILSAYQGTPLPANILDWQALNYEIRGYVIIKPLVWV
For test [5] the target is unchanged. As to the kind of experiment: IRMA; SAP non-covalently immobilised; antibody at 100 µg/ml; radiolabelled sheep anti-mouse IgG2a.
Test [6] has the same target. As to the kind of experiment: IRMA; SAP non-covalently immobilised; antibody at 1 µg/ml; radiolabelled sheep anti-mouse IgG2a.
For test [7] the target is unchanged. The test is described as follows: IRMA; SAP non-covalently immobilised; antibody at 10 µg/ml; radiolabelled sheep anti-mouse IgG2a.
The target is the same in test [8]. As to the kind of experiment: IRMA; SAP non-covalently immobilised; antibody at 10 µg/ml; radiolabelled sheep polyvalent anti-mouse IgG.
Test [9] shares this target. The test is described as follows: IRMA; SAP alone captured on immobilised sheep polyclonal anti-human SAP; in calcium; radiolabelled sheep anti-mouse IgG; mean n=3.
For test [10] the target is unchanged. As to the kind of experiment: IRMA; SAP non-covalently immobilised; antibody at 1 µg/ml; radiolabelled sheep polyvalent anti-mouse IgG.
The target is the same in test [11]. As to the kind of experiment: IRMA; SAP non-covalently immobilised; antibody at 0.1 µg/ml; radiolabelled sheep polyvalent anti-mouse IgG.
Test [12] shares this target. As to the kind of experiment: IRMA; SAP non-covalently immobilised; antibody at 0.1 µg/ml; radiolabelled sheep anti-mouse IgG2a.
In test [13] the target is human SAP complexed with CPHPC and covalently cross linked with BS3 (human) (UniProt P02743). The test is described as follows: IRMA; SAP-CPHPC complex covalently immobilised; in EDTA; radiolabelled sheep anti-mouse IgG; mean n=3.
human SAP complexed with CPHPC and covalently cross linked with BS3 (human), sequence (P02743 20-223, one chain of several): as the sequence (P02743 20-223) above
Test [14] has the same target. The test is described as follows: IRMA; SAP-CPHPC complex captured on immobilised sheep polyclonal anti-human SAP; in calcium; radiolabelled sheep anti-mouse IgG; mean n=3.
Test [15] deals with human serum amyloid P component (SAP) (human) (UniProt P02743). The test is described as follows: IRMA; SAP non-covalently immobilised; antibody at 0.001 µg/ml; radiolabelled sheep polyvalent anti-mouse IgG.
Test [16] shares this target. As to the kind of experiment: IRMA; SAP non-covalently immobilised; antibody at 0.001 µg/ml; radiolabelled sheep anti-mouse IgG2a.
The target is the same in test [17]. The test is described as follows: IRMA; SAP non-covalently immobilised; antibody at 0.01 µg/ml; radiolabelled sheep anti-mouse IgG2a.
Test [18] shares this target. The test is described as follows: Biacore; isolated pure SAP alone immobilised on the chip.
For test [19] the target is unchanged. The test is described as follows: IRMA; SAP alone covalently immobilised; in calcium; radiolabelled sheep anti-mouse IgG; mean n=3.

Take SAP-5 (antibody): the Activity bound (d.p.m.) in test [1] amounted to 4050 d.p.m; in [2], 902 d.p.m; in test [3], 6160 d.p.m; in test [4], 16200 d.p.m; in [5], 2200 d.p.m; in [6], 1650 d.p.m. Besides, the Activity bound (d.p.m.) turned out to be 1980 d.p.m in test [7]; 15400 d.p.m in test [8]; 9310 d.p.m in test [9]; 12100 d.p.m in test [10]; 4560 d.p.m in [11]; 589 d.p.m in [12]. Further, the Activity bound (d.p.m.) in test [13] came to 5140 d.p.m; in test [14] it was 7120 d.p.m; in test [15], 195 d.p.m; in test [16], 94 d.p.m; in test [17], 222 d.p.m; in test [19] it was 5580 d.p.m. This substance also showed a koff in test [18] of 6e-05 s⁻¹. In test [18], the kon amounted to 20000 M⁻¹ s⁻¹.

Values taken from patent US20110166329A1.
